T1: mature transglutaminase (Streptomyces mobaraensis strain No. 140226) (Streptomyces mobaraensis, UniProt P81453 77-407)
T1 construct: Natural enzyme from the culture solution; also called mature TGase; M-TGase
T1 sequence: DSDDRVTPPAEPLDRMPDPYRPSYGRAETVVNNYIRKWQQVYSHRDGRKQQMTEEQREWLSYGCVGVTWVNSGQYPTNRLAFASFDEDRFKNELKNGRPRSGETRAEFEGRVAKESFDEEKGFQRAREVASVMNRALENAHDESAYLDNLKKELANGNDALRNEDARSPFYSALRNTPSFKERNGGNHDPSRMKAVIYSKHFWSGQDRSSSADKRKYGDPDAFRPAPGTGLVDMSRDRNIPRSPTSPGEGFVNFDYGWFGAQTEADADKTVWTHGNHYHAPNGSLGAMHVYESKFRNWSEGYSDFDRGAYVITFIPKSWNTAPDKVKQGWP

B1: pro-sequence peptide of transglutaminase (1) DNGAGEETKSYAETYRLTADDVANINALNESAPAA (peptide)
peptide: DNGAGEETKSYAETYRLTADDVANINALNESAPAA
notes: Recovered from P-TGase of Streptomyces mobaraensis strain No. 140226 after SDS treatment and gel filtration; One of three peptide species found in the P-TGase preparation
B2: pro-sequence peptide of transglutaminase (2) DNGAGEETKSYAETYRLTADDVANINALNESAPAAS (peptide)
peptide: DNGAGEETKSYAETYRLTADDVANINALNESAPAAS
notes: Recovered from P-TGase of Streptomyces mobaraensis strain No. 140226 after SDS treatment and gel filtration
B3: pro-sequence peptide of transglutaminase (3) DNGAGEETKSYAETYRLTADDVANINALNESAPAASS (peptide)
peptide: DNGAGEETKSYAETYRLTADDVANINALNESAPAASS
notes: as for B2

target: T1, mature transglutaminase (Streptomyces …); experiment: gel filtration (Sephacryl S-100), elution patterns with and without SDS
Method: On the other hand, ammonium sulfate was added to the recovered supernatant until the concentration of saturated solution was achieved, and precipitates were recovered. The recovered precipitates were dissolved in 20 mM phosphate buffer solution (KPB; pH 7.2), and then dialyzed against the same buffer solution. Next, ammonium sulfate was added to the dialysate so that 1.7 M ammonium sulfate was obtained, which was subjected to Phenyl-Sepharose 6 Fast Flow equilibrated with 20 mM phosphate buffer solution (KPB; pH 7.2) containing 1.7 M ammonium sulfate, washed with 1.7 M ammonium sulfate, and eluted with 1.0 M ammonium sulfate. Thus, the target stabilized TGase (P-TGase) was eluted in the eluted fraction. The specific activity of the thus obtained P-TGase (u/Abs 280 nm) was 7.9. The elution patterns of gel filtration (Sephacryl S-100) was compared between the case in which SDS (sodium dodecyl sulfate) was added and the case in which SDS was not added.

Binding result, binds:
B1, B2, B3
